Our source for the Ki values is publication PMC5056641.

As usually defined, the Ki is a measure of affinity in units of concentration, obtained from inhibition or displacement.

This experiment has as its target His-CLK1(ΔN) (mouse). Put plainly: kinetic competition.

Chain of SRSF1 (His-tagged) (Q07955 whole entry): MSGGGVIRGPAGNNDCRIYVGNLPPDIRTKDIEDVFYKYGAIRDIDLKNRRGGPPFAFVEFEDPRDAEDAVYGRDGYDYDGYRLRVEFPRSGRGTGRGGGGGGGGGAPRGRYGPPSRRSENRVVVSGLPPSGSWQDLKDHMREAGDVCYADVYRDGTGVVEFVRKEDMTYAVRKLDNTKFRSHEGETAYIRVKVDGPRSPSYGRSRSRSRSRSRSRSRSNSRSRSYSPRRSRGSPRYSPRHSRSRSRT

In turn, “SRSF1 (His-tagged) (from UniProt Q07955 1-248) (natural protein)” yielded an inhibition constant (Ki) of 300 nM. That is a sub-micromolar value.
